The values below come from article PMC10192418, “High-affinity peptides developed against calprotectin and their application as synthetic ligands in diagnostic assays” (Nature Communications, 2023).

“And” between values parts separate entries of the source, which are not always exact repeats. Identical values can stand only once. Ends that are not written are not given here. 5(6)‑carboxyfluorescein = 5(6)-carboxyfluorescein on the N-terminus

B1: B-RCAL (BÜHLMANN recombinant calprotectin; His6-linker-S100A9-linker-S100A8) (complex, human)
chain: MTCKMSQLERNIETIINTFHQYSVKLGHPDTLNQGEFKELVRKDLQNFLKKENKNEKVIEHIMEDLDTNADKQLSFEEFIMLMARLTWASHEKMHEGDEGPGHHHKPGLGEGTPLEVLFQGPMLTELEKALNSIIDVYHKYSLIKGNFHAVYRDDLKKLLETECPQYIRKKGADVWFKELDINTDGAVNFQEFLILVIKMGVAAHKKSHEESHKE
notes: S100A9 (Mrp-14), human; cleavable linker, HRV 3C protease recognition site (LEVLFQ/GP); not cleaved in this molecule; S100A8 (Mrp-8), human; With calcium two fusion chains form the calprotectin tetramer; without calcium (EDTA) a single fusion chain is the 'dimer' (S100A8/S100A9); also called heterodimeric fusion protein; source: provided by BÜHLMANN Laboratories AG

Data set [1] deals with the molecule itself. In words: dynamic light scattering + other: mass photometry; B-RCAL in 20 mM HEPES, 100 mM NaCl, pH 7.5 with 2 mM CaCl2, 1 h at room temperature; tetramer = two B-RCAL fusion chains.
The target of data set [2] is T1, recombinant calprotectin B-RCAL lacking the His6-tag and with the heterodimer linker cleaved by 3C protease, … (human, cysteines replaced by serines | cysteines replaced by serines).
T1 construct: rest of the first HRV 3C site after cleavage (LEVLFQ/GP), worked out from the indicated cleavage site; S100A9, human; rest of the second HRV 3C site left on S100A9 after cleavage, worked out from the indicated cleavage site; rest of the second HRV 3C site after cleavage, worked out from the indicated cleavage site; S100A8, human; One heterodimer and one peptide in the asymmetric unit; the …
T1 chain 1: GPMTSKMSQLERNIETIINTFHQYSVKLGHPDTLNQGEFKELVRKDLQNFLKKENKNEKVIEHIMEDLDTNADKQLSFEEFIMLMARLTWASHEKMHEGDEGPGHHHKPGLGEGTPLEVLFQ
T1 chain 2: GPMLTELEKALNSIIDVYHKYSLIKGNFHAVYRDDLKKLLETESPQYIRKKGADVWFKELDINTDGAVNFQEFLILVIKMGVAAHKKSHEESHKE
In words: crystal structure; co-crystallisation of cleaved cysteine-free calprotectin (440 μM) with 14-fold excess of linear peptide 3 and 1 mM CaCl2; sitting drop, 18 °C; 0.1 M MIB pH 6.0, 25% PEG 1500. To be noted: both partners purified.

Data set [3] concerns the target B1. In words: fluorescence polarisation; calprotectin serially diluted, fluorescent peptide at 20 nM; 20 mM HEPES, 100 mM NaCl, 2 mM CaCl2, pH 7.5, 1 mM DTT, 0.01% Tween-20; tetrameric calprotectin; Kd calculated on the concentration of the heterodimer (1:1 heterodimer:peptide). The conditions noted are these: both partners purified.
The target in data set [4] is T2, native calprotectin derived from granulocytes (human, UniProt P05109 1-93; P06702 1-114).
T2 construct: S100A8 (Mrp-8), human, native; S100A9 (Mrp-14), human, native; Tetramer with calcium, dimer with 1 mM EDTA; also called S100A8/S100A9; Mrp-8/Mrp-14; source: also native in human serum samples; copies: 2 + 2
T2 sequence (looked up) 1: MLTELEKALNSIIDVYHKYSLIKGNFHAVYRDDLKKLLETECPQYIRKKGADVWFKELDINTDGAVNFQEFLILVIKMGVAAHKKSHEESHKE
T2 sequence (looked up) 2: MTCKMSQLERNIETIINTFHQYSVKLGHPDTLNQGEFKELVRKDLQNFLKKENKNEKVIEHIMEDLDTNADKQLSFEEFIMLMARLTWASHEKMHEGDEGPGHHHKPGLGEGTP
The data set is described as above. The conditions noted are these: both partners purified.

For B1, the binding result in data set [1] is “binds”.

B2: linear peptide 3 (peptide)
peptide: {5(6)‑carboxyfluorescein}-RSPESVAFPMFQSHWYSG
notes: phage-selected peptide 3 with its four cysteines replaced by serines; Synthesised on rink amide AM resin, so a C-terminal amide is likely (surmised); also called peptide 3 (linear; all four cysteines replaced with serines); source: synthetic peptide (Fmoc solid-phase synthesis, HPLC purified)
Turning to B2, the binding result in data set [2] is given as “binds”. For the same molecule, the Kd in data set [3] was 26 nM and 20 nM; in data set [4], 26 nM.
